pKi: −log10 of the molar value.

The target of test [1] is human legumain, activated asparaginyl-specific endopeptidase (AEP) (human) (UniProt Q99538). As to the kind of experiment: SEC; legumain incubated with hCE-K75A at a 1:4 molar ratio in 50 mM citric acid pH 4.0, 100 mM NaCl for 1 h at 37 °C, till complete RCL hydrolysis; Superdex 75 or S200 10/300 GL in 20 mM citric acid pH 4.0, 50 mM NaCl; peak fractions analysed by SDS-PAGE.

The target is the same in test [2]. The test is described as follows: enzyme inhibition kinetics (Ki from initial velocities, Morrison equation); hCE-K75A at 1.5 nM to 1.6 µM mixed with 50 µM AAN-AMC in 20 mM citric acid pH 5.5, 50 mM NaCl, 0.05% Tween-20; reaction started with 2 nM legumain; 10 min at 37 °C.

Sequence of UniProt Q99538 (Q99538 18-323): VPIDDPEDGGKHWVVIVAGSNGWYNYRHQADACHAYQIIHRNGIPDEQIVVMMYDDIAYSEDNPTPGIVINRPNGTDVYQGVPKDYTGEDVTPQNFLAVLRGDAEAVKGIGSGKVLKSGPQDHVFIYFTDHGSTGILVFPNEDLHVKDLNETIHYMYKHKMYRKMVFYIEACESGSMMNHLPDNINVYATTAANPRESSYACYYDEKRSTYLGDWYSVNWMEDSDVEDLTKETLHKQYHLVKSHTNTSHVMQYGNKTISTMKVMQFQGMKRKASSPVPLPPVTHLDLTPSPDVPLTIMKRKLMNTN

On to “human cystatin M/E-K75A mutant, cleaved by legumain after P1-Asn39 on the reactive center loop (complex)”, for which the molar ratio of enzyme:inhibitor in the complex peak (enzyme:inhibitor) in test [1] came out at 1. “human cystatin M/E-K75A mutant, intact (natural protein)”: in test [2], the pKi is 7.70.

The values are drawn from PMC9604545.
